# Laboratory results taken from patent US20190322748A1 (Hoffmann-La Roche, published 2019).
# Read-outs that look alike come from different tables or passages of the source.
# What was measured:
# [1] = biological target: T1, full-length human Tim3 on cells (CHO-K1 stably transfected with plasmid 15312_hTIM3-fl_pUC_Neo) (human, UniProt Q8TDQ0 22-301); test: cell-based or functional assay
# [2] = biological target: T1, full-length human Tim3 on cells (CHO-K1 …); test: cell ELISA on CHO-K1 cells with full-length human Tim3
# [3] = biological target: T2, Tim3-CLIP (on transiently transfected HEK293 cells) (human, CLIP-tag labelled with Clip-Red); test: cell-based TR-FRET (Tag-lite) on HEK293 cells co-transfected with PD1-SNAP (Lumi4-Tb) and Tim3-CLIP (Clip-Red), 1 h at 4 C; signal needs both receptors bound at once by one antibody; mean +/- SD, n=3
# T2 construct: The plasmid encodes residues 1-202 including the signal peptide; also called CLIP-tagged TIM3
# [4] = biological target: T3, monomeric human Tim3-ECD (human, UniProt Q8TDQ0 22-202); test: SPR Biacore T200, Ab captured on anti-human Fab IgG, hu Tim3-ECD in solution, 25 C
# T3 construct: SPR analyte; also called huTim3; hu Tim3-ECD
# [5] = biological target: T4, biotinylated cynoPD1-ECD-Biotin (cynomolgus); test: ELISA, cynomolgus cross-reactivity
# T4 construct: extracellular domain; also called cyPD1
# [6] = biological target: T5, biotinylated PD1-ECD-AviHis (human, UniProt Q15116 25-170, biotinylated, site not stated); test: ELISA on coated biotinylated PD1-ECD-AviHis
# T5 construct: also called huPD1; hu PD1
# [7] = biological target: T6, human PD1-ECD (human, UniProt Q15116 25-170); test: SPR Biacore T200, Ab captured on anti-human IgG, 25 C
# T6 construct: SPR analyte; also called hu PD1-ECD
# [8] = biological target: T7, full-length human PD1 on cells (CHO-K1 stably transfected with plasmid 15311_hPD1-fl_pUC_Neo) (human, UniProt Q15116 25-288); test: cell ELISA on CHO-K1 cells with full-length human PD1
# T7 construct: Also used as the target of the MLR and reporter read-outs; also called CHO-PD1; PD1 on primary human T cells in the MLR
# [9] = biological target: T6, human PD1-ECD; test: SPR; row head 'Affinity KD 37°C [nM] *)', second of two values (equals the 25 C value of Table 9)
# [10] = biological target: T6, human PD1-ECD; test: SPR; row head 'Affinity KD 37°C [nM] *)', first of two values, footnote not explained
# [11] = biological target: T5, biotinylated PD1-ECD-AviHis; test: ELISA on coated biotinylated PD1-ECD-AviHis; remark: listed apart in the source
# [12] = biological target: T4, biotinylated cynoPD1-ECD-Biotin; test: ELISA on coated cynoPD1-ECD-Biotin
# [13] = biological target: T5, biotinylated PD1-ECD-AviHis; test: ELISA on coated biotinylated PD1-ECD-AviHis; remark: listed apart in the source
# [14] = biological target: T7, full-length human PD1 on cells (CHO-K1 …); test: cell-based or functional assay
# [15] = biological target: T8, biotinylated TIM3-ECD-AviHis (human, UniProt Q8TDQ0 22-202, biotinylated, site not stated); test: ELISA on coated biotinylated TIM3-ECD-AviHis
# T8 construct: also called huTIM3; Hu TIM3
# [16] = biological target: T6, human PD1-ECD; test: SPR Biacore T200, Ab captured on anti-human Fc IgG, hu PD1-ECD in solution, 25 C
Binder,"IFN-gamma release in MLR at 1 µg/ml antibody, % of rec hu IL-2 (20 EU/ml) = 100% [1] [%]","IFN-gamma release in MLR at 10 µg/ml antibody, % of rec hu IL-2 (20 EU/ml) = 100% [1] [%]","IFN-gamma release in MLR at 40 µg/ml antibody, % of rec hu IL-2 (20 EU/ml) = 100% [1] [%]",EC50 [2] [µg/mL],EC50 [5] [nM],EC50 [6] [nM],Kd [7] [nM],koff [7] [s⁻¹],kon [7] [M⁻¹ s⁻¹],EC50 [8] [µg/mL],Kd [9] [nM],Kd [10] [nM],EC50 [11] [µg/mL],EC50 [12] [µg/mL],also measured
"Tim3_0021 (antibody, V domains shown) VH: QVQLQQSGPQLVRPGASVQISCKASGYSFTSYLLHWLKQRPGQGLEWIGMIDPSDSETRLNQKFKDKATLTVDKSSSTAYMQLSSPTSEDSAVYYCARDGYYAWYYFDCWGQGTTLTVSS VL: DIVLTQSPATLSVTPGDRVSLSCRASQSIGNNLHWYQQKSHESPRLLIKYASHSISGIPSKFSGTGSGTDFTLSFNSVETEDFGMYFCQQSNSWPLTFGAGTKLELK",101,108,112,0.073,–,–,–,–,–,–,–,–,–,–,–
"1+1 PD1TIM3_0476 (based on humanized PD1-0103_0312 / Tim3-0438) (bispecific antibody, human IgG1, kappa, L234A L235A, 1+1 CrossMAb Vh-VL: HC1/LC1 form the crossed PD1 arm, HC2/LC2 the TIM3 arm; knobs into holes) heavy 1: not shown heavy 2: EVQLVESGGGLVQPGGSLRLSCAASGFNIKTTYMHWVRQAPGKGLEWVGRIDPADDNTKYAPKFQGKATISADTSKNTAYLQMNSLRAEDTAVYYCVRDFGYVAWFAYWGQGTLVTVSSASTKGPSVFPLAPSSKSTSGGTAALGCLVEDYFPEPVTVSWNSGALTSGVHTFPAVLQSSGLYSLSSVVTVPSSSLGTQTYICNVNHKPSNTKVDEKVEPKSCDKTHTCPPCPAPEAAGGPSVFLFPPKPKDTLMISRTPEVTCVVVDVSHEDPEVKFNWYVDGVEVHNAKTKPREEQYNSTYRVVSVLTVLHQDWLNGKEYKCKVSNKALGAPIEKTISKAKGQPREPQVCTLPPSRDELTKNQVSLSCAVKGFYPSDIAVEWESNGQPENNYKTTPPVLDSDGSFFLVSKLTVDKSRWQQGNVFSCSVMHEALHNHYTQKSLSLSPGK light 1: EVQLLESGGGLVQPGGSLRLSCAASGFSFSSYTMSWVRQAPGKGLEWVATISGGGRDIYYPDSVKGRFTISRDNSKNTLYLQMNSLRAEDTAVYYCVLLTGRVYFALDSWGQGTLVTVSSASVAAPSVFIFPPSDEQLKSGTASVVCLLNNFYPREAKVQWKVDNALQSGNSQESVTEQDSKDSTYSLSSTLTLSKADYEKHKVYACEVTHQGLSSPVTKSFNRGEC light 2: DIVMTQSPLSLPVTPGEPASISCRASQSVDNYVAWYLQKPGQSPQLLIYYASNRYIGVPDRFSGSGSGTDFTLKISRVEAEDVGVYYCQQHYSSPYTFGQGTKVEIKRTVAAPSVFIFPPSDRKLKSGTASVVCLLNNFYPREAKVQWKVDNALQSGNSQESVTEQDSKDSTYSLSSTLTLSKADYEKHKVYACEVTHQGLSSPVTKSFNRGEC",–,–,–,–,–,–,–,–,–,–,–,–,–,–,binding result [3]: binds; Kd [4]: 332 nM
"PD1-0103-0312 (antibody, human IgG1, V domains shown, Humanized) VH: EVQLLESGGGLVQPGGSLRLSCAASGFSFSSYTMSWVRQAPGKGLEWVATISGGGRDIYYPDSVKGRFTISRDNSKNTLYLQMNSLRAEDTAVYYCVLLTGRVYFALDSWGQGTLVTVSS VL: DIVMTQSPDSLAVSLGERATINCKASESVDTSDNSFIHWYQQKPGQSPKLLIYRSSTLESGVPDRFSGSGSGTDFTLTISSLQAEDVAVYYCQQNYDVPWTFGQGTKVEIK",–,–,–,–,0.08,0.1,1.8,0.000345,195000,0.0101,1.8,1.5,0.011,0.0083,–
"PD1-0103-0315 (antibody, human IgG1, V domains shown, Humanized) VH: EVQLLESGGGLVQPGGSLRLSCAASGFSFSSYTMSWVRQAPGKGLEWVATISGGGRDIYYPDSVKGRFTISRDNSKNTLYLQMNSLRAEDTAVYYCVLLTGRVYFALDSWGQGTLVTVSS VL: EIVLTQSPATLSLSPGERATLSCRASESVDTSDNSFIHWYQQKPGQSPRLLIYRSSTLESGIPARFSGSGSGTDFTLTISSLEPEDFAVYYCQQNYDVPWTFGQGTKVEIK",–,–,–,–,0.04,0.06,1.5,0.000291,189000,0.0073,1.5,1.7,0.01,0.0079,–
"PD1-0103-0314 (antibody, human IgG1, V domains shown, Humanized) VH: EVQLLESGGGLVQPGGSLRLSCAASGFSFSSYTMSWVRQAPGKGLEWVATISGGGRDIYYPDSVKGRFTISRDNSKNTLYLQMNSLRAEDTAVYYCVLLTGRVYFALDSWGQGTLVTVSS VL: EIVLTQSPATLSLSPGERATLSCRASESVDTSDNSFIHWYQQKPGQSPRLLIYRSSTLESGIPARFSGSGSGTDFTLTISSLEPEDFAVYYCQQNYDVPWTFGQGTKVEIK",–,–,–,–,0.05,0.07,1.5,0.000279,187000,0.0077,1.5,1.6,0.011,0.0083,–
"PD1-0103-0313 (antibody, human IgG1, V domains shown, Humanized) VH: EVQLLESGGGLVQPGGSLRLSCAASGFSFSSYTMSWVRQAPGKGLEWVATISGGGRDIYYPDSVKGRFTISRDNSKNTLYLQMNSLRAEDTAVYYCVLLTGRVYFALDSWGQGTLVTVSS VL: DVVMTQSPLSLPVTLGQPASISCRASESVDTSDNSFIHWYQQRPGQSPRLLIYRSSTLESGVPDRFSGSGSGTDFTLKISRVEAEDVGVYYCQQNYDVPWTFGQGTKVEIK",–,–,–,–,0.06,0.07,2.3,0.000367,160000,0.0108,2.3,1.9,0.015,0.011,–
"Tim3_0026 (antibody, V domains shown) VH: QIQLVQSGPELKKPGETVKISCKASGYTFTDYSMHWVKQAPGRGLKWMGYINTETYEPTFGADFKGRFAFSLDTSATTAYLQINSLKTEDTATFFCGGGGYPAYWGQGTVVIVSA VL: DVLMTQTPLSLPVSLGDQASISCRSSRTILHSSGNTYLEWYLQKPGQSPKLLIYKVSNRFSGVPDRFSGSGSGTDFTLNISRVEAEDLGVYYCFQDSHVPFTFGTGTKLEIK",18,16,25,0.069,–,–,–,–,–,–,–,–,–,–,–
"2+2 PD1TIM3_0358 (chimeric PD1-0103 / Tim3-0028) (bispecific antibody, human IgG1, kappa, L234A L235A, also called PD1TIM3-0358 (2 + 2); Bispec AB 0358 (2+2)) heavy: not shown light 1: NIVMTPTPKFLPVSSGDRVTMTCRASQSVDNYVAWYQQKPGQSPKLLIYYASNRYIGVPDRFTGSGSGTDFTFTISSVQVEDLAVYFCQQHYSSPYTFGSGTKLEIKRTVAAPSVFIFPPSDRKLKSGTASVVCLLNNFYPREAKVQWKVDNALQSGNSQESVTEQDSKDSTYSLSSTLTLSKADYEKHKVYACEVTHQG light 2: EVILVESGGGLVKPGGSLKLSCAASGFSFSSYTMSWVRQTPEKRLDWVATISGGGRDIYYPDSVKGRFTISRDNAKNTLYLEMSSLMSEDTALYYCVLLTGRVYFALDSWGQGTSVTVSSASVAAPSVFIFPPSDEQLKSGTASVVCLLNNFYPREAKVQWKVDNALQSGNSQESVTEQDSKDSTYSLSSTLTLSKADYEKHKVYACEVTHQGLSSPVTKSFNRGEC",–,–,–,–,–,–,–,–,–,–,–,–,–,–,"EC50 [13]: 0.08 nM; Kd [4]: 240 nM; EC50 of IFN-gamma secretion in MLR, donors D1 + D3 [14]: 6.8 nM; EC50 of IFN-gamma secretion in MLR, donors D2 + D4 [14]: 5.7 nM; EC50 [15]: 0.19 nM; Kd [16]: 0.3 nM"
"Tim3_0033 (antibody, V domains shown) VH: QGQMHQSGAELVKPGSSVKLSCKTSGFTFSSSFISWLKQKPGQSLEWIAWIYAATGSTSYNQKFTNKAQLTVDTSSSAAYMQFSSLTTEDSAIYYCARHAGYPHYYAMDYWGQGTSVTVSS VL: DIQMTQSPASLSASVGETVTITCRASENIFSNLAWYQQKQGKSPQLLVYSATNLGDGVPSRFSGSGSGTQFSLKINSLQPEDFGNYYCQHFYKIPFTFGTGTKLEIK",0,30,35,3.71,–,–,–,–,–,–,–,–,–,–,–
